Assay results from patent US20260001928A1 (CORTERIA PHARMACEUTICALS, priority 2022, published 2026).
*1 amine or outer side, *2 acyl side, *3 side chain or, on linkers, in order; H or OH if unused. Where no end group is shown, it is not given here. Side-chain parts run from the residue outwards. [ ]: non-standard residue; d: D form. The star is where a group is joined. C18 diacid = O=C(O)CCCCCCCCCCCCCCCCC(=O)*; C16 diacid = O=C(O)CCCCCCCCCCCCCCC(=O)*; γGlu = O=C(O)[C@H](CCC(=O)[*:2])N[*:1]; NMeI = CC[C@H](C)[C@H](NC)C(=O)O; αMeL = CC(C)C[C@](C)(N)C(=O)O; AEEA = NCCOCCOCC(=O)O; Aib = CC(C)(N)C(=O)O

B1: SEQ ID NO 64 (peptide)
peptide: [NMeI]VLSLD[dV]PIKLK([γGlu-C16 diacid])KILLEQEKQKKQREQAETN[Aib]QILAQV-NH2
modifications: N-terminus assumed
SMILES: CC[C@H](C)[C@H](NC)C(=O)N[C@H](C(=O)N[C@@H](CC(C)C)C(=O)N[C@@H](CO)C(=O)N[C@@H](CC(C)C)C(=O)N[C@@H](CC(=O)O)C(=O)N[C@@H](C(=O)N1CCC[C@H]1C(=O)N[C@H](C(=O)N[C@@H](CCCCN)C(=O)N[C@@H](CC(C)C)C(=O)N[C@@H](CCCCNC(=O)CC[C@H](NC(=O)CCCCCCCCCCCCCCC(=O)O)C(=O)O)C(=O)N[C@@H](CCCCN)C(=O)N[C@H](C(=O)N[C@@H](CC(C)C)C(=O)N[C@@H](CC(C)C)C(=O)N[C@@H](CCC(=O)O)C(=O)N[C@@H](CCC(N)=O)C(=O)N[C@@H](CCC(=O)O)C(=O)N[C@@H](CCCCN)C(=O)N[C@@H](CCC(N)=O)C(=O)N[C@@H](CCCCN)C(=O)N[C@@H](CCCCN)C(=O)N[C@@H](CCC(N)=O)C(=O)N[C@@H](CCCNC(=N)N)C(=O)N[C@@H](CCC(=O)O)C(=O)N[C@@H](CCC(N)=O)C(=O)N[C@@H](C)C(=O)N[C@@H](CCC(=O)O)C(=O)N[C@H](C(=O)N[C@@H](CC(N)=O)C(=O)NC(C)(C)C(=O)N[C@@H](CCC(N)=O)C(=O)N[C@H](C(=O)N[C@@H](CC(C)C)C(=O)N[C@@H](C)C(=O)N[C@@H](CCC(N)=O)C(=O)N[C@H](C(N)=O)C(C)C)[C@@H](C)CC)[C@@H](C)O)[C@@H](C)CC)[C@@H](C)CC)C(C)C)C(C)C
B2: SEQ ID NO 43 (peptide)
peptide: Ac-IVLSLDVPIK[αMeL]K([γGlu-C16 diacid])KILLEQEKQKKQREQAETN[Aib]QILAQV-NH2
SMILES: CC[C@H](C)[C@H](NC(C)=O)C(=O)N[C@H](C(=O)N[C@@H](CC(C)C)C(=O)N[C@@H](CO)C(=O)N[C@@H](CC(C)C)C(=O)N[C@@H](CC(=O)O)C(=O)N[C@H](C(=O)N1CCC[C@H]1C(=O)N[C@H](C(=O)N[C@@H](CCCCN)C(=O)N[C@@](C)(CC(C)C)C(=O)N[C@@H](CCCCNC(=O)CC[C@H](NC(=O)CCCCCCCCCCCCCCC(=O)O)C(=O)O)C(=O)N[C@@H](CCCCN)C(=O)N[C@H](C(=O)N[C@@H](CC(C)C)C(=O)N[C@@H](CC(C)C)C(=O)N[C@@H](CCC(=O)O)C(=O)N[C@@H](CCC(N)=O)C(=O)N[C@@H](CCC(=O)O)C(=O)N[C@@H](CCCCN)C(=O)N[C@@H](CCC(N)=O)C(=O)N[C@@H](CCCCN)C(=O)N[C@@H](CCCCN)C(=O)N[C@@H](CCC(N)=O)C(=O)N[C@@H](CCCNC(=N)N)C(=O)N[C@@H](CCC(=O)O)C(=O)N[C@@H](CCC(N)=O)C(=O)N[C@@H](C)C(=O)N[C@@H](CCC(=O)O)C(=O)N[C@H](C(=O)N[C@@H](CC(N)=O)C(=O)NC(C)(C)C(=O)N[C@@H](CCC(N)=O)C(=O)N[C@H](C(=O)N[C@@H](CC(C)C)C(=O)N[C@@H](C)C(=O)N[C@@H](CCC(N)=O)C(=O)N[C@H](C(N)=O)C(C)C)[C@@H](C)CC)[C@@H](C)O)[C@@H](C)CC)[C@@H](C)CC)C(C)C)C(C)C
B3: SEQ ID NO 40 (peptide)
peptide: Ac-IVLSLD[dV]PIKLK([γGlu-C16 diacid])KILLEQEKQKKQREQAETN[Aib]QILAQV-NH2
SMILES: CC[C@H](C)[C@H](NC(C)=O)C(=O)N[C@H](C(=O)N[C@@H](CC(C)C)C(=O)N[C@@H](CO)C(=O)N[C@@H](CC(C)C)C(=O)N[C@@H](CC(=O)O)C(=O)N[C@@H](C(=O)N1CCC[C@H]1C(=O)N[C@H](C(=O)N[C@@H](CCCCN)C(=O)N[C@@H](CC(C)C)C(=O)N[C@@H](CCCCNC(=O)CC[C@H](NC(=O)CCCCCCCCCCCCCCC(=O)O)C(=O)O)C(=O)N[C@@H](CCCCN)C(=O)N[C@H](C(=O)N[C@@H](CC(C)C)C(=O)N[C@@H](CC(C)C)C(=O)N[C@@H](CCC(=O)O)C(=O)N[C@@H](CCC(N)=O)C(=O)N[C@@H](CCC(=O)O)C(=O)N[C@@H](CCCCN)C(=O)N[C@@H](CCC(N)=O)C(=O)N[C@@H](CCCCN)C(=O)N[C@@H](CCCCN)C(=O)N[C@@H](CCC(N)=O)C(=O)N[C@@H](CCCNC(=N)N)C(=O)N[C@@H](CCC(=O)O)C(=O)N[C@@H](CCC(N)=O)C(=O)N[C@@H](C)C(=O)N[C@@H](CCC(=O)O)C(=O)N[C@H](C(=O)N[C@@H](CC(N)=O)C(=O)NC(C)(C)C(=O)N[C@@H](CCC(N)=O)C(=O)N[C@H](C(=O)N[C@@H](CC(C)C)C(=O)N[C@@H](C)C(=O)N[C@@H](CCC(N)=O)C(=O)N[C@H](C(N)=O)C(C)C)[C@@H](C)CC)[C@@H](C)O)[C@@H](C)CC)[C@@H](C)CC)C(C)C)C(C)C
B4: SEQ ID NO 102 (peptide)
peptide: Ac-IVLSLDVPIKLK([AEEA-AEEA-γGlu-C18 diacid])KILLEQEKQKKQREQAETNVQILAQV-NH2
SMILES: CC[C@H](C)[C@H](NC(C)=O)C(=O)N[C@H](C(=O)N[C@@H](CC(C)C)C(=O)N[C@@H](CO)C(=O)N[C@@H](CC(C)C)C(=O)N[C@@H](CC(=O)O)C(=O)N[C@H](C(=O)N1CCC[C@H]1C(=O)N[C@H](C(=O)N[C@@H](CCCCN)C(=O)N[C@@H](CC(C)C)C(=O)N[C@@H](CCCCNC(=O)COCCOCCNC(=O)COCCOCCNC(=O)CC[C@H](NC(=O)CCCCCCCCCCCCCCCCC(=O)O)C(=O)O)C(=O)N[C@@H](CCCCN)C(=O)N[C@H](C(=O)N[C@@H](CC(C)C)C(=O)N[C@@H](CC(C)C)C(=O)N[C@@H](CCC(=O)O)C(=O)N[C@@H](CCC(N)=O)C(=O)N[C@@H](CCC(=O)O)C(=O)N[C@@H](CCCCN)C(=O)N[C@@H](CCC(N)=O)C(=O)N[C@@H](CCCCN)C(=O)N[C@@H](CCCCN)C(=O)N[C@@H](CCC(N)=O)C(=O)N[C@@H](CCCNC(=N)N)C(=O)N[C@@H](CCC(=O)O)C(=O)N[C@@H](CCC(N)=O)C(=O)N[C@@H](C)C(=O)N[C@@H](CCC(=O)O)C(=O)N[C@H](C(=O)N[C@@H](CC(N)=O)C(=O)N[C@H](C(=O)N[C@@H](CCC(N)=O)C(=O)N[C@H](C(=O)N[C@@H](CC(C)C)C(=O)N[C@@H](C)C(=O)N[C@@H](CCC(N)=O)C(=O)N[C@H](C(N)=O)C(C)C)[C@@H](C)CC)C(C)C)[C@@H](C)O)[C@@H](C)CC)[C@@H](C)CC)C(C)C)C(C)C

What was measured:
[1] = biological target: human corticotropin-releasing factor 2a (CRF2a receptor) (human), Q13324; experiment: cell-based or functional assay
Sequence of human corticotropin-releasing factor 2a (CRF2a receptor) (human), Q13324 (Q13324 20-411): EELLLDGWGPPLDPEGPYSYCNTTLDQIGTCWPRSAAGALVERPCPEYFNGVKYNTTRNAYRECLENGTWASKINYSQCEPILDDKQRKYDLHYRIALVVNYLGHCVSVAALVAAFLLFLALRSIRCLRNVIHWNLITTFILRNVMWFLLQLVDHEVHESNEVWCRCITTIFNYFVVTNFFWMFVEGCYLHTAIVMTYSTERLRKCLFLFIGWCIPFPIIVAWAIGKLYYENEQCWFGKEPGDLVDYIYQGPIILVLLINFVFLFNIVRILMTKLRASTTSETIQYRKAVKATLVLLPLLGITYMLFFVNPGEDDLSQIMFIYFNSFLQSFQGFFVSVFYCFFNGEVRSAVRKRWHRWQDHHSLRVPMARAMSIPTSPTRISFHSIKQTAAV

CRF1R receptor = biological target: T1, CRF1R receptor (UniProt P34998 24-415, limits assumed); experiment: cell-based or functional assay
T1 sequence (looked up): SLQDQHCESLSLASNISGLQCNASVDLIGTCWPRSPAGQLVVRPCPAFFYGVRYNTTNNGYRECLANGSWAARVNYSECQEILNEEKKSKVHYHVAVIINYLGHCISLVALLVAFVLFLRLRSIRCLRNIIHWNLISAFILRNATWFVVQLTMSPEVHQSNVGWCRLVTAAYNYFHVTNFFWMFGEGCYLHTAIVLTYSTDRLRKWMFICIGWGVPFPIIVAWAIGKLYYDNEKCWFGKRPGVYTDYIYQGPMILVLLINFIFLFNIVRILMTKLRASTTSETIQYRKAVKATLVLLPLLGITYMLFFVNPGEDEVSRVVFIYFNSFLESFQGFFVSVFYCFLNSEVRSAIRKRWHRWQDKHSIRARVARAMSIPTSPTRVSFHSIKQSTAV

Binder	EC50 [nM] (cAMP) [1]	Emax (% I) (CRF1R receptor)	EC50 (CRF1R receptor)
Ac-IVLSLDVPIK[αMeL]K([γGlu-C16 diacid])KILLEQEKQKKQREQAETNVQILAQV-NH2 [SEQ ID NO 49]	0.92 nM	-3%	–
B1	0.19 nM	4%	–
B2	0.3 nM	1%	–
B3	0.25 nM	0%	–
B4	17.6 nM	-5%	–
IVLSLD[dV]PIKLK([AEEA-AEEA-γGlu-γGlu-C16 diacid])QILLKQERQKKQREQAEKNKQILEQV-NH2 [SEQ ID NO 146]	0.1 nM	27%	100000 pM
